# Source: paper PMC11413682, “SARS-CoV-2 ORF10 hijacking ubiquitination machinery reveals potential unique drug targeting sites” (Acta Pharmaceutica Sinica. B, 2024)
# B1: SARS-CoV-2 ORF10 N5 peptide (peptide)
# peptide: GYINV
# notes: first five residues of the SARS-CoV-2 ORF10 N-terminal extension; also called five-residue peptide; source: synthetic peptide
# Target: T1, CUL2^ZYG11B (residues 490–728) (human, UniProt Q9C0D3 490-728)
# T1 construct: human ZYG11B, substrate receptor of the cullin-2 RING E3 ligase; ARM3–ARM8 repeats, residues 490–728; also called CUL2^ZYG11B(490–728); ARM3–ARM8; source: E. coli, purified (Ni-NTA, TEV cleavage, HiTrap Q HP, gel filtration); not shown: His6, N-terminal, cleaved; SUMO, N-terminal, cleaved
# T1 sequence (Q9C0D3 490-728): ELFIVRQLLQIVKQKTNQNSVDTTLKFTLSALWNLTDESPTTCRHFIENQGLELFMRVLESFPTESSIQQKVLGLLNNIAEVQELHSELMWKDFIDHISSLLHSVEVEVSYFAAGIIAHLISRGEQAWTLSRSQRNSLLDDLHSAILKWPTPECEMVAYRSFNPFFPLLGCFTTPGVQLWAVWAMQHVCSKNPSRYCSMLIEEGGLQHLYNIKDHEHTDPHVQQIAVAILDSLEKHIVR
# Experiment: ITC; MicroCal iTC200; peptides (0.5–1 mmol/L) in the syringe, CUL2^ZYG11B(490–728) (0.03 mmol/L) in the cell; 18 injections of 2 μL; repeated 3 times
# Conditions: both partners purified
binder,measurement,value
B1,Kd,2.94 µM
